The values below come from article PMC11922745, “Reconstitution of SPO11-dependent double-strand break formation” (Nature, 2024).

Data set [1] deals with T1, SPO11 (beta isoform);TOP6BL (Mus musculus;Mus musculus, UniProt Q9WTK8;J3QMY9 1-396;1-579, |).
T1 sequence 1: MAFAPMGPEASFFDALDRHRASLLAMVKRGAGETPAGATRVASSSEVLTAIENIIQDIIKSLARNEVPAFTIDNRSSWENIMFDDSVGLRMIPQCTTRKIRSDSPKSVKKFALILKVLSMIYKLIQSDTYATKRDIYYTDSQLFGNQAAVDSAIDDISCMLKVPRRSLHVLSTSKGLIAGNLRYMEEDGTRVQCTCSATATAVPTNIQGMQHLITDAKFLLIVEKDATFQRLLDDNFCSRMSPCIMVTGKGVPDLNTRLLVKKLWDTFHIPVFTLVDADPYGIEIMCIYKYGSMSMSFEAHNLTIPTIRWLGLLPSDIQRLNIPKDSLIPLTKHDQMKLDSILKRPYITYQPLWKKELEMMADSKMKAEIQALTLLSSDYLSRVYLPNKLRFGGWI
T1 sequence 2: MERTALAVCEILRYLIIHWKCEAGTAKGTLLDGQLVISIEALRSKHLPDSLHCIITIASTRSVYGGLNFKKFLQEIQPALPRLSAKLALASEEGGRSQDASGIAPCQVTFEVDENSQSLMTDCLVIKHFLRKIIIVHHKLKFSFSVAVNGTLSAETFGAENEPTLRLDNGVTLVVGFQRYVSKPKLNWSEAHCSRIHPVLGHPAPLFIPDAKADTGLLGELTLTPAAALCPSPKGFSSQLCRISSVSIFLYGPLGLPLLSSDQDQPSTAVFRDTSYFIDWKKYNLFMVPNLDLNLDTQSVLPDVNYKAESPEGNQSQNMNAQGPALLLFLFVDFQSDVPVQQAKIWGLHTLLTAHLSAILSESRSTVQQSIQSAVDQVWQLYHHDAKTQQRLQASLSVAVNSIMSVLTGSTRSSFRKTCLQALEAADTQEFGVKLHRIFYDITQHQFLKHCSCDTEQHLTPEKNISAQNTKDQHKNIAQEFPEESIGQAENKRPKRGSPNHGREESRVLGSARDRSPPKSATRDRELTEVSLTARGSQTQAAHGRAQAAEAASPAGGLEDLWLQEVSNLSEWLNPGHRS
Put plainly: EMSA; double-end binding disfavoured at 0.8 nM, restored at higher protein; Hairpin EMSA: 25 mM Tris-HCl pH 7.5, 100 mM NaCl, 5 mM MgCl2, 7.5% glycerol, 2 mM DTT, 1 mg/ml BSA, 0.1 nM DNA, 30 min 30 C; cleavage-oligo EMSA: 25 mM HEPES-NaOH pH 7.5, 50 mM NaCl, 5 mM MgCl2, 7.5% glycerol, 1 mg/ml BSA, 2 mM DTT, 4 C. As to conditions: protein: recombinant;recombinant; tags: N-terminal Flag-TEV;untagged; copies: 1;1; label: 5'-32P; 5' overhang 2 nt (TA) at both ends. In general terms: In EMSA bound probe runs differently from free probe, usually more slowly.

For data set [2], the target named is T1, SPO11 (beta isoform);TOP6BL. The data set is described as follows: EMSA; double-end binding; Hairpin EMSA: 25 mM Tris-HCl pH 7.5, 100 mM NaCl, 5 mM MgCl2, 7.5% glycerol, 2 mM DTT, 1 mg/ml BSA, 0.1 nM DNA, 30 min 30 C; cleavage-oligo EMSA: 25 mM HEPES-NaOH pH 7.5, 50 mM NaCl, 5 mM MgCl2, 7.5% glycerol, 1 mg/ml BSA, 2 mM DTT, 4 C. Particulars: protein: recombinant;recombinant; tags: N-terminal Flag-TEV;untagged; copies: 1;1; label: 5'-32P; 5' overhang 2 nt (TA) at both ends.

Data set [3] deals with T2, Flag-tagged mouse SPO11 (β splicing isoform), wild type (mouse, UniProt Q9WTK8-1 1-396).
T2 construct: mouse SPO11, β splicing isoform (includes exon 2), UniProt Q9WTK8-1, full-length optimized coding DNA; A TEV cleavage site lies between the Flag tag and SPO11; no cleavage is described; also called Flag–SPO11; mSPO11; not shown: Flag, N-terminal, kept
T2 sequence (looked up): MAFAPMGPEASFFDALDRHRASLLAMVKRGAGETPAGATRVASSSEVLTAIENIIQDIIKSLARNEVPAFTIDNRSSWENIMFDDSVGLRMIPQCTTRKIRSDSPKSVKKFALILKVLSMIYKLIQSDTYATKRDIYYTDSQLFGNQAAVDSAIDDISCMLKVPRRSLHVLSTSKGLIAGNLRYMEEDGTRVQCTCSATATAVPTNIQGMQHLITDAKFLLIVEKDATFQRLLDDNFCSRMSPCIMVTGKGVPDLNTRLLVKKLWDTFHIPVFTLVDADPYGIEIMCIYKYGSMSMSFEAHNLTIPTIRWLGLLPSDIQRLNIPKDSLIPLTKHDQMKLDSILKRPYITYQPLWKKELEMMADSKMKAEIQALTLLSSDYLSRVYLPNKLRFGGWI
Put plainly: SEC; proteins co-expressed in FreeStyle 293-F cells; lysate (25 mM HEPES-NaOH pH 7.5, 500 mM NaCl) on anti-Flag M2 affinity gel, eluted with Flag peptide, then Superdex 200 Increase 10/300 GL; fractions on Coomassie-stained SDS-PAGE. Particulars: partners not purified. For orientation: In gel filtration, larger molecules generally elute earlier.

A further data set deals with T3, SPO11 E224A;TOP6BL (Mus musculus;Mus musculus, UniProt Q9WTK8;J3QMY9 1-396;1-579, E224A|).
T3 sequence 1: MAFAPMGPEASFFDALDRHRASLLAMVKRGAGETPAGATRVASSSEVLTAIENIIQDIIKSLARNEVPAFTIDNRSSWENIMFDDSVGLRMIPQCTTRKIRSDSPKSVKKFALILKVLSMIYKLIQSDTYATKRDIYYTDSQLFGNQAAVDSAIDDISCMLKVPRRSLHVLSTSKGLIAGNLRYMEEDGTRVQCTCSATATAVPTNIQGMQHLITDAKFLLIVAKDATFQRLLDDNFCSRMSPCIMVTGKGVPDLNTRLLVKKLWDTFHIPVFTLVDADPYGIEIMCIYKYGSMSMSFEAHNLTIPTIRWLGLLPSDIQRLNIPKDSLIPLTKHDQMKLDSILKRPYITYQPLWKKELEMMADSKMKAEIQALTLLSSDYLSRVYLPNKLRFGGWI
T3 sequence 2: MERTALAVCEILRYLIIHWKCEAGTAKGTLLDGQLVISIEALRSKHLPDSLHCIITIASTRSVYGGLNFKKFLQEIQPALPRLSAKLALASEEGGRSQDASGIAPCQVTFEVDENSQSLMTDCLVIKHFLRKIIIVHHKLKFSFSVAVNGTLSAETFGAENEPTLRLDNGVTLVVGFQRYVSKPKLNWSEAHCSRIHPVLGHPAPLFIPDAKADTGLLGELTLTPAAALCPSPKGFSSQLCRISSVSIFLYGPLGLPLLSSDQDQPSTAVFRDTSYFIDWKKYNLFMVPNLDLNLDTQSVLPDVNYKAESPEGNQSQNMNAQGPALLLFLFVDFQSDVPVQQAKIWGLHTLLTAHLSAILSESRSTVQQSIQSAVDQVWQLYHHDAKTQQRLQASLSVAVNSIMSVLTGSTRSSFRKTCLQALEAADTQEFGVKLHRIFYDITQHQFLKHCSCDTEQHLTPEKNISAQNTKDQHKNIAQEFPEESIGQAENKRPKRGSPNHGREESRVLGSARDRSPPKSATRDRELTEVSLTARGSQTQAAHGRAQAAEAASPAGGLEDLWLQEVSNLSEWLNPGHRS
The data set is described as follows: EMSA; 5 mM Mg2+; DNA binding retained; Kd value only in figure; Hairpin EMSA: 25 mM Tris-HCl pH 7.5, 100 mM NaCl, 5 mM MgCl2, 7.5% glycerol, 2 mM DTT, 1 mg/ml BSA, 0.1 nM DNA, 30 min 30 C; cleavage-oligo EMSA: 25 mM HEPES-NaOH pH 7.5, 50 mM NaCl, 5 mM MgCl2, 7.5% glycerol, 1 mg/ml BSA, 2 mM DTT, 4 C. As to conditions: protein: recombinant;recombinant, tags: N-terminal Flag-TEV;untagged, copies: 1;1, label: 5'-32P, 5' overhang 2 nt.

Data set [4] deals with T1, SPO11 (beta isoform);TOP6BL. The data set is described as follows: EMSA; 5 mM Mg2+; apparent Kd, end binding; second shift at >=25 nM; Hairpin EMSA: 25 mM Tris-HCl pH 7.5, 100 mM NaCl, 5 mM MgCl2, 7.5% glycerol, 2 mM DTT, 1 mg/ml BSA, 0.1 nM DNA, 30 min 30 C; cleavage-oligo EMSA: 25 mM HEPES-NaOH pH 7.5, 50 mM NaCl, 5 mM MgCl2, 7.5% glycerol, 1 mg/ml BSA, 2 mM DTT, 4 C. As to conditions: protein: recombinant;recombinant, tags: N-terminal Flag-TEV;untagged, copies: 1;1, label: 5'-32P, 5' overhang 2 nt.

The target of a further data set is T4, SPO11 Y138F;TOP6BL (Mus musculus;Mus musculus, UniProt Q9WTK8;J3QMY9 1-396;1-579, Y138F|).
T4 sequence 1: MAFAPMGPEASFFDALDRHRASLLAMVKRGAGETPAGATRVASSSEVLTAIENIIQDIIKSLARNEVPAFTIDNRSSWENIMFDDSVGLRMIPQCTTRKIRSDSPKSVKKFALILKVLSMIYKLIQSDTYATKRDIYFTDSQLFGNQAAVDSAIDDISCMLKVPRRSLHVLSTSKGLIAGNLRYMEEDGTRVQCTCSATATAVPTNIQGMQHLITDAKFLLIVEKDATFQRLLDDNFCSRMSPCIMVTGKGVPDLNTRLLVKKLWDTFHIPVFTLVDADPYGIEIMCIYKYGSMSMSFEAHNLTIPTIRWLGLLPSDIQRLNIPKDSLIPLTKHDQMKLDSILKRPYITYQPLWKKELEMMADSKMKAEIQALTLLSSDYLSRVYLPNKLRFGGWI
T4 sequence 2: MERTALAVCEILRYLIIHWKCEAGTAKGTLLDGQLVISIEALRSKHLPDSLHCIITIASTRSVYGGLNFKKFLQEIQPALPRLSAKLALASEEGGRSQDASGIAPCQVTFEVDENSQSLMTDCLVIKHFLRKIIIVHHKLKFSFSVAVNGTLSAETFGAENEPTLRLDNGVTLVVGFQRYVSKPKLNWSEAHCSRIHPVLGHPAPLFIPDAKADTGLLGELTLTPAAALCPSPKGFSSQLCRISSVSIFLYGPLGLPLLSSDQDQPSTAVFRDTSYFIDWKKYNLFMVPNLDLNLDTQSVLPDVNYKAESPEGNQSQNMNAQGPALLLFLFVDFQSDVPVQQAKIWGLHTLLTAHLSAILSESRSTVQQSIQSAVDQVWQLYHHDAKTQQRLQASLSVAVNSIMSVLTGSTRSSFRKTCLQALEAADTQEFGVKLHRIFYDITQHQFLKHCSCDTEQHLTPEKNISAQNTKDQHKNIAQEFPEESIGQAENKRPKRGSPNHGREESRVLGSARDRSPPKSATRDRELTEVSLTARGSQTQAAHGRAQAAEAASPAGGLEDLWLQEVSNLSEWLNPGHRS
Put plainly: EMSA; 5 mM Mg2+; apparent Kd; Hairpin EMSA: 25 mM Tris-HCl pH 7.5, 100 mM NaCl, 5 mM MgCl2, 7.5% glycerol, 2 mM DTT, 1 mg/ml BSA, 0.1 nM DNA, 30 min 30 C; cleavage-oligo EMSA: 25 mM HEPES-NaOH pH 7.5, 50 mM NaCl, 5 mM MgCl2, 7.5% glycerol, 1 mg/ml BSA, 2 mM DTT, 4 C. As to conditions: protein: recombinant;recombinant, tags: N-terminal Flag-TEV;untagged, copies: 1;1, label: 5'-32P, 5' overhang 2 nt.

B1: 26 bp double-overhang duplex (dsDNA)
DNA 1: TAGCAATGTAATCGTCTATGACGTTAGC
DNA 2: TAGCTAACGTCATAGACGATTACATTGC
With B1, the binding result in data set [1] is “binds”.

B2: 28 bp double-overhang duplex (dsDNA)
DNA 1: TAGCAATGTAATCGTCTATGACGTTAGCGC
DNA 2: TAGCGCTAACGTCATAGACGATTACATTGC
B2: the binding result in data set [2] is on record as “binds”.

B3: mouse TOP6BL, untagged (natural protein, UniProt J3QMY9-1 1-579, looked up)
chain: MERTALAVCEILRYLIIHWKCEAGTAKGTLLDGQLVISIEALRSKHLPDSLHCIITIASTRSVYGGLNFKKFLQEIQPALPRLSAKLALASEEGGRSQDASGIAPCQVTFEVDENSQSLMTDCLVIKHFLRKIIIVHHKLKFSFSVAVNGTLSAETFGAENEPTLRLDNGVTLVVGFQRYVSKPKLNWSEAHCSRIHPVLGHPAPLFIPDAKADTGLLGELTLTPAAALCPSPKGFSSQLCRISSVSIFLYGPLGLPLLSSDQDQPSTAVFRDTSYFIDWKKYNLFMVPNLDLNLDTQSVLPDVNYKAESPEGNQSQNMNAQGPALLLFLFVDFQSDVPVQQAKIWGLHTLLTAHLSAILSESRSTVQQSIQSAVDQVWQLYHHDAKTQQRLQASLSVAVNSIMSVLTGSTRSSFRKTCLQALEAADTQEFGVKLHRIFYDITQHQFLKHCSCDTEQHLTPEKNISAQNTKDQHKNIAQEFPEESIGQAENKRPKRGSPNHGREESRVLGSARDRSPPKSATRDRELTEVSLTARGSQTQAAHGRAQAAEAASPAGGLEDLWLQEVSNLSEWLNPGHRS
notes: mouse TOP6BL, UniProt J3QMY9-1, untagged, optimized coding DNA
Usually stoichiometry N stands for a count of units in the complex or per binding partner. For B3, the “stoichiometry N” value in data set [3] amounted to 1.

B4: 27 bp double-overhang duplex (dsDNA)
DNA 1: TAGCAATGTAATCGTCTATGACGTTAGCG
DNA 2: TACGCTAACGTCATAGACGATTACATTGC
Turning to B4, the binding result in data set [1] is “binds”.

As to TAGCAATGTAATCGTCTATGACGTTAACGTCATAGACGATTACATTGC (structured_DNA) [25 bp hairpin, 2-nt 5' overhang], in the data set with SPO11 E224A;TOP6BL, the binding result is on record as “binds”. The Kd in data set [4] was determined as 0.59 ± 0.05 nM; with SPO11 Y138F;TOP6BL, 0.57 ± 0.03 nM.
